This note sets out measurements from paper PMC3836714, “MYB97, MYB101 and MYB120 Function as Male Factors That Control Pollen Tube-Synergid Interaction in Arabidopsis thaliana Fertilization”.

For series [1], the target named is T1, MYB101 MYB domain (Arabidopsis thaliana, UniProt O80883 1-133).
T1 sequence: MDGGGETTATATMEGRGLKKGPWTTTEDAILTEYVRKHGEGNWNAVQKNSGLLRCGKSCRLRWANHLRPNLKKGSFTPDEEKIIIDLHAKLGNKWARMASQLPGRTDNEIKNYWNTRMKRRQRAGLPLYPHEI
Put plainly: competition; 500x molar excess vs labeled DG2WT; 10 mM Tris-Cl, 50 mM KCl, 1 mM DTT, pH 7.5, room temperature 20 min; 20 fmol probe, 200 ng protein, 50 ng poly(dI-dC) in 20 ul; 6% native PAGE, 0.5x TBE. As to conditions: protein: recombinant; tags: 6xHis (pET-30a(+)); annealed complementary oligonucleotides.

Series [2] has as its target T1, MYB101 MYB domain. Put plainly: EMSA; 10 mM Tris-Cl, 50 mM KCl, 1 mM DTT, pH 7.5, room temperature 20 min; 20 fmol probe, 200 ng protein, 50 ng poly(dI-dC) in 20 ul; 6% native PAGE, 0.5x TBE. To be noted: protein: recombinant; tags: 6xHis (pET-30a(+)); annealed complementary oligonucleotides. For orientation: In EMSA bound probe runs differently from free probe, usually more slowly.

B1: mDG2WT (dsDNA)
DNA 1: GACACAAATCAACAGCTCGAGGACAAAATT
DNA 2: AATTTTGTCCTCGAGCTGTTGATTTGTGTC
On to B1, for which the binding result with MYB101 MYB domain [1] is “no binding”.

B2: DG2WT (dsDNA)
DNA 1: GACACAAATCAACAGTAACAAAACAAAATT
DNA 2: AATTTTGTTTTGTTACTGTTGATTTGTGTC
Turning to B2, in the series with MYB101 MYB domain [2], the binding result was “binds”.

B3: DG1WT (dsDNA)
DNA 1: TTATGCATATAACAAAAATAATTTCAATGC
DNA 2: GCATTGAAATTATTTTTGTTATATGCATAA
Take B3: the binding result with MYB101 MYB domain [2] is “binds”.

B4: DG3WT (dsDNA)
DNA 1: ACGTCGGAAGGATTAACAAAAAAAAAGCCGTGGCGTT
DNA 2: AACGCCACGGCTTTTTTTTTGTTAATCCTTCCGACGT
Consider B4, for which the binding result with MYB101 MYB domain [2] is given as “binds”.
